Reference: patent US20100190682A1, “USE OF PROTEIN HYDROLYSATES TO STABILIZE METALLOPROTEASE DETERGENT FORMULATIONS” (priority 2007, published 2010)

Experiments:
[1] = in the presence of zinc ion concentrations lower than 15 mM; cited from earlier work
NprE = target: T1, NprE (Bacillus amyloliquefaciens, UniProt P06832); assay: Remaining AGLA activity of NprE stability assay samples in DW-CT HDL detergent formulation; format: biochemical; conditions: no inhibitor; 2 mg/mL NprE incubated in HDL detergent formulation DW-CT, 32° C.
T1 construct: made in house; host or cells: Bacillus subtilis
T1 sequence (P06832 222-521): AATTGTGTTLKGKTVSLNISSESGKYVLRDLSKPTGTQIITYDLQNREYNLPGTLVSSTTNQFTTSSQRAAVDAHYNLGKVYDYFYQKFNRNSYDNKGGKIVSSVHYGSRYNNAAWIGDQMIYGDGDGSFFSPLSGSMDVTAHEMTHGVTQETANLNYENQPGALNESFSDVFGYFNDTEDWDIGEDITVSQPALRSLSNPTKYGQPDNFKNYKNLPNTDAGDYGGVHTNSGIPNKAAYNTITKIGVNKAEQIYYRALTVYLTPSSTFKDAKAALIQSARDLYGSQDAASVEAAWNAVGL
Method: The HDL detergent formulation used in this example was: DW-CT. This formulation has a 37% water content and was designed to make up to 90% by volume with 10% room (by volume) to add ingredients such as stabilizers or enzymes.
Assays were carried out using a 10% DW-CT detergent formulation made by mixing 5 mL of DW-CT (prepared as in Table 1), 1 mL of 500 mM HEPES at pH 8.0, and 44 mL distilled water.
Stability assay samples were prepared using five different candidate protein hydrolysates, as well as a control with no inhibitor added.
In general, 20 μL of inhibitor stock solution was pre-mixed with 10 μL of 50 mg/mL NprE stock solution. Then, 220 μL of 10% DW-CT detergent formulation in 10 mM HEPES was added to each sample so that the final NprE concentration was 2 mg/mL. Samples were incubated at 32° C. in a microtiter plate in a Thermomixer (Eppendorf).
The final concentration of enzyme in each sample was 2 mg/mL NprE. The final inhibitor concentrations in their respective samples were: 5.6 mg/mL of Amisoy, Amicase, HyPep 4601, or Proteose Peptone, respectively; or 7.2 mM of the casein hydrolysis product mixture (based on 12.5-fold dilution). […]
Remaining NprE activity of each of stability assay samples (prepared as above) was measured at various time points using the general AGLA activity assay except that the assay solution used was 50 mM MES, 2.5 mM CaCl2, 0.005% Tween 80 at pH 6.5.

[2] = NprE stability at different storage concentrations (AGLA activity over time); format: physicochemical
Method: Samples were prepared containing the neutral metalloprotease, NprE, at a range of concentrations from 625 to 10000 ppm in 10 mM HEPES (N-(2-Hydroxyethyl)piperazine-N′-(2-ethanesulfonic acid)) buffer at pH 8.0. All samples, except the one control at 625 ppm NprE concentration, included 10% PPG and 0.5 mM CaCl2. All samples were incubated at a temperature of 32° C. over a period of 6 hours. NprE activity of the samples was measured using the AGLA activity assay at various time points.

NprE: recombinant neutral metalloprotease: Bacillus amyloliquefaciens neutral metalloprotease cloned into Bacillus subtilis
stability period under detergent formulation conditions [1]: approximately 4 weeks | loss of original NprE activity in about an hour (NprE): more than 80% | NprE activity maintained for 1.5 hours ([2]; 10,000 μg/mL (or ppm) NprE, 10% PPG, 0.5 mM CaCl2, 10 mM HEPES pH 8.0, 32° C.): almost full activity | NprE activity at 1.5 hr ([2]; 625, 1250 and 2500 ppm NprE, 10% PPG, 0.5 mM CaCl2, 10 mM HEPES pH 8.0, 32° C.): ~60% | NprE activity over time, control sample ([2]; 625 ppm NprE, no added PPG or CaCl2, 10 mM HEPES pH 8.0, 32° C.): lost nearly all of its activity within the first 2 hours
